Patent US20200079851A1 (University of Texas, published 2020)
Positions count from the first letter of the chain named.

What was measured:
[1] = target: T1, human LILRB4 (human, UniProt Q8NHJ6 22-259, limits assumed); assay: ELISA, OD450 against antibody concentration
T1 construct: also called leukocyte immunoglobulin-like receptor subfamily B member 4

[2] = target: T1, human LILRB4; assay: ELISA
[3] = target: D2-SR-M16(210-259); assay: ELISA, mAb titrated on D2-SR-M16(210-259)
[4] = target: T1, human LILRB4; assay: ELISA, OD450 against antibody concentration; remark: listed apart in the source
[5] = target: T1, human LILRB4; assay: ELISA, OD450 against antibody concentration; remark: listed apart in the source
[6] = target: T2, LILRB3 (human, UniProt O75022 24-443, limits assumed); assay: flow cytometry on LILRB3-overexpressing 293T cells, mAb at 2 ug/ml
T2 construct: also called leukocyte immunoglobulin-like receptor subfamily B member 3
T2 sequence (O75022 24-443 limits assumed): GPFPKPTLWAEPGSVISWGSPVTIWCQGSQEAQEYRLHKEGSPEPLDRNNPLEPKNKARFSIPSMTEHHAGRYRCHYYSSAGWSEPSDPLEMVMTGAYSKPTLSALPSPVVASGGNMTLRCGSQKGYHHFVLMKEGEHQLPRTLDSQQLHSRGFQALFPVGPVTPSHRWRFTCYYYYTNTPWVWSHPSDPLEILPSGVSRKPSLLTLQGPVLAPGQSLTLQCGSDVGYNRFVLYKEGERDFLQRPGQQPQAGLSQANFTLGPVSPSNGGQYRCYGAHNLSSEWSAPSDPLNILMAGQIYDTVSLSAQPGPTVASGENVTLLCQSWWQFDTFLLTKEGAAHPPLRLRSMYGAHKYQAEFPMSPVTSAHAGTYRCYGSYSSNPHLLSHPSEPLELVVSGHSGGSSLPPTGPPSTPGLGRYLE

[7] = target: T1, human LILRB4; assay: flow cytometry on LILRB4-overexpressing 293T cells, mAb at 2 ug/ml
[8] = target: T3, LILRB2 (human, UniProt Q8N423 22-458, limits assumed); assay: flow cytometry on LILRB2-overexpressing 293T cells, mAb at 2 ug/ml
T3 construct: also called leukocyte immunoglobulin-like receptor subfamily B member 2
T3 sequence (Q8N423 22-458 limits assumed): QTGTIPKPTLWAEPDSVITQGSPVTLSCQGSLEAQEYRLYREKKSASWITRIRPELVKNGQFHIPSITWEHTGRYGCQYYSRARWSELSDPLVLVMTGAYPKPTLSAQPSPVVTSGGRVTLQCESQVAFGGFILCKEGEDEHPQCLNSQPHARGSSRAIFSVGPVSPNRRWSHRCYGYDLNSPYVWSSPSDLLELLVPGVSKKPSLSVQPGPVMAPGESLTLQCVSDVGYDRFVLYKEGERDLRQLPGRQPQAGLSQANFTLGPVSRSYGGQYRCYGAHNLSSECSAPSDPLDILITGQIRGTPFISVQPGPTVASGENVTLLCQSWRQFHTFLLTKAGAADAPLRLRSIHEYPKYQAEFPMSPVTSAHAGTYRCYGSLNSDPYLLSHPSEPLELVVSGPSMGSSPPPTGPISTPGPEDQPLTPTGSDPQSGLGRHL

[9] = target: T1, human LILRB4; assay: ELISA, OD450 against antibody concentration; remark: listed apart in the source
[10] = target: T1, human LILRB4; assay: reactivity table, assay not named on the sheet
[11] = target: T1, human LILRB4; assay: ELISA, OD450 against antibody concentration; remark: listed apart in the source
[12] = target: LILRB5 (human, UniProt O75023 24-458, limits assumed); assay: reactivity table, assay not named on the sheet
LILRB5, sequence (O75023 24-458 limits assumed): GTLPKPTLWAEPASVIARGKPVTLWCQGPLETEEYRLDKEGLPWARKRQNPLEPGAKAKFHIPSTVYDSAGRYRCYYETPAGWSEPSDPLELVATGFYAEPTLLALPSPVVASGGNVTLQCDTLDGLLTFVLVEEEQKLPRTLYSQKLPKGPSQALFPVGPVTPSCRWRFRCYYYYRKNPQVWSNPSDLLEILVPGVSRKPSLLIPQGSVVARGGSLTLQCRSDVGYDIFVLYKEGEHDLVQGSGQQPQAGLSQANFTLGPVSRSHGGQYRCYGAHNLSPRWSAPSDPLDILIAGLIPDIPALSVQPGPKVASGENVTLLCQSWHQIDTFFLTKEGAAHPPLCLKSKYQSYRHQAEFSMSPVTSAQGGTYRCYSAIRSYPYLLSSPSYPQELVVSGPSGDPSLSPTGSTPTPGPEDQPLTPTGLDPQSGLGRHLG

D2-SR-M16(210-259), sequence (chain, as listed by the source): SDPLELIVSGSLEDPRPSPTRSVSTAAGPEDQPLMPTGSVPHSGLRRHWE

B1: anti-LILRB4 rabbit monoclonal antibody #216-1 (antibody, V domains shown)
VH: EQSVEESGGGLVKPGASLTLTCIASGFSFSSSYVMCWVRQAPGKGLELIACIHAGGSGSTYYASWAKGRFTISKTSSTTVTLQMTSLTAADTATYFCARYNYHFYYIGDYSDLWGPGTLVTVSS
VL: ELVMTQTPSSVSAAVGGTVTIKCQASEDIDSYLAWYQQKPGQRPKVLIYRASTLASGVPSRFKGSGSGTEFTLTISGLECDDAATYYCQQGWSNDVGSNAFGGGTKVEIK
notes: Rabbit mAb
EC50 [1]: 0.0459 µg/mL

B2: anti-LILRB4 rabbit monoclonal antibody #192 (antibody, V domains shown)
VH: EQSLEESGGGLVTPGGTLTLTCTVSGFSLSNNAMSWVRQAPGKGLEWIGVILLAGPTYYASWAKGRFTISKTSTTVDLKITSPTTEDTATYFCAIAIGSRPFALWGQGTLVTISS
VL: ELVLTQTPSSTSAAVGGTVTINCQSSQSVYSNWLSWFQQKPGQPPKPLIYLASTLASGVPSRFSGSGSGTQFTLTISDVQCDDAATYYCQGGYNGNIYTFGGGTEVVVK
notes: Rabbit mAb
EC50 [2]: 0.14 nM

B3: anti-LILRB4 rabbit monoclonal antibody #208 (antibody, V domains shown)
VH: B2 VH with L4V, A54S, P56T
VL: B2 VL with L4M
notes: Rabbit mAb
EC50 [2]: 0.132 nM

B4: anti-LILRB4 rabbit monoclonal antibody #140 (antibody, V domains shown)
VH: EQSLKESGGRLVTPGTPLTLTCTASGFSLSTYDMSWVRQAPGKGLEWIGIISTSYSIYYTYYASWAKGRFTISRTSSTTVDLKMTSLTTEDTATYFCVGGGGKLNSVVYYIRGLRFWGQGTLVTISS
VL: ELVMTQTPSSTSAAVGGTVTINCQASQSVYDDNWCSWYQQKPGQPPKLLIYDASTLPSGVPSRFKGSGSGTQFTLTISDLECDDAATYYCAGAYSDNIYVFGGGTEVEIK
notes: also called mAb 140
EC50 [2]: 0.183 nM | EC50 (read off the curve) [3]: ~40 ng/mL | EC50 [4]: 0.0274 µg/mL

B5: anti-LILRB4 rabbit monoclonal antibody #128-1 (antibody, V domains shown)
VH: EQSVEESEGRLVTPGGSLTLTCTVSGFGLSSWAMAWVRQAPGKGLEWIGIIGVSGKIYYPTWAKGRFTISRTSTTVDLKIASPTTEDTATYFCAREPYGDSLWGQGTLVTISS
VL: ELVMTQTPSPVSAAVGGTVTISCQSSQNISTYLSWYQQKPGQPPKFLIYQASKLASGVSSRFKGSGSGTQFTLTISDVQCDDAASYYCAGWKSYSNDDNDFGGGTEVVVK
notes: Rabbit mAb
EC50 [2]: 0.139 nM | EC50 [5]: 0.0209 µg/mL

B6: anti-LILRB mAb C287 (antibody, V domains shown)
VH: QIQLVQSGPELKKPGETVKISCKASGYTFTNYGINWVKQAPGKGLKWMGWINTNTGEPTYAEDFKGRFAFSLETSASTAYLQINNLKNEDTATYFCTRGSAKGGFFYWGQGTLVTVSA
VL: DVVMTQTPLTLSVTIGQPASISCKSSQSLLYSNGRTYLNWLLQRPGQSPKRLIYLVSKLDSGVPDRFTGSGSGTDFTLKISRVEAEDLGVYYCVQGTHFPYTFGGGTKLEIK
notes: mAb against LILRB3
% of cells in the positive gate [6]: 55%

B7: anti-LILRB4 mAb C53 (antibody, V domains shown)
VH: EVNLEESGGGLVQPGGSMKLSCIASGFTFSNYWMNWVRQSPEKGLEWVAEIRLKYNNYATHYAESVKGRFTISRDDSKSTVYLQMNNLRAEDTGIYYCTGTRYGSSLDYWGQGTSVTVSS
VL: DIVMSQSPSSLAVSVGEKVTMSCKSSQNLFYSTNQKNYLAWYQQKPGQSPKLLIYWASTRESGVPDRFTGSGSGTAFTLTISSVKAEDLAVYYCQQYYNYPLTFGAGTKLELK
notes: Mouse mAb
% of cells in the positive gate [7]: 73.5%

B8: anti-LILRB mAb C193 (antibody, V domains shown)
VH: EVQLVESGGGLVQPKGSLRLSCAASGFIFNTYAMNWVRQAPGKGLEWVARIRSKSNKYATYYVDSVKDRFTISRDDSQSMLYLQMNNLKTEDTAMYYCVRDGIWGQGTLVTVSA
VL: DIVMTQSPSSLTVTAGEKVTMSCKSSQSLLNSGNQKNYLTWYHQKPGQPPKLLIYWAFTRESGVPDRFTGSGSGTDFTLTISSVQAEDLAVYYCQNDYSYPLTFGSGTKLEIK
notes: mAb against LILRB2
% of cells in the positive gate [8]: 15%

B9: anti-LILRB4 rabbit monoclonal antibody #223 (antibody, V domains shown)
VH: EQSVKESGGRLVTPGTPLTLTCIVSGFSLNNYAISWVRQAPEKGLEWIGMIRSDGHVDYATWAKGRFTISKTSTTVDLKMTSLTTEDTATYFCARGGHFFNPWGPGTLVTISS
VL: ELVMTQTPSPVSAAVGGTVTISCQSSQTVYNYNELAWYQQKPGQPPKLLIDAASTLASGVPSRFSGSGSGTQFTLKISEVQCDDAATYYCQGTYYISGWYYTFGGGTEVVVK
notes: Rabbit mAb
EC50 [2]: 0.0897 nM | EC50 [9]: 0.0274 µg/mL

B10: anti-LILRB mAb C3 (antibody, V domains shown)
VH: EVQLVESGGGLVQPKGSLKLSCAASGFTFNNYAMNWGRQAPGKGLEWVARIRSKRNNYATHYDDSVKDRFTISRDDSQNMLYLQLNNLKTEDTAMYYCVRDGPYAMDYWGQGTSVTVSS
VL: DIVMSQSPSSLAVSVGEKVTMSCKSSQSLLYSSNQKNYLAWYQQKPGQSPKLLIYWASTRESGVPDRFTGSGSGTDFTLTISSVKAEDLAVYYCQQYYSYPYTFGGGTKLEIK
notes: mAb against LILRB3
binding result [10]: binds | % of cells in the positive gate [6]: 54.2%

B11: anti-LILRB4 rabbit monoclonal antibody #101 (antibody, V domains shown)
VH: HSVKESGGGLVTPGESLKLTCKASGMDFSKYWICWVRQAPGKGLEWIACIDTGRSAITVYAKWAKGRFTISKTSSTTVTLQMTTLTAADTATYFCETSVDLWGPGTLVTISS
VL: ELDLTQTPASVEAAVGGTVTIKCQASESIYSGLAWYKQKPGQPPKFLILSASTQASGVPSRFKGSGSGTEFTLTISDLECADAATYYCQSRHYGSSRSYGFAFGGGTEVEIK
notes: Rabbit mAb
EC50 [2]: 0.118 nM | EC50 [11]: 0.0177 µg/mL

B12: anti-LILRB4 rabbit monoclonal antibody #161-1 (antibody, V domains shown)
VH: QSVKESGGRLVTPGTPLTLTCTVSGIDLSVYLMSWVRHSPGKGLEYIGFINSAGITAYATWAKGRFIISKTSTTVDLKVTSPTTEDTATYFCARNWIRLDLWGQGTLVTISS
VL: ELDLTQTPASVSAAVGGTVTISCQSSETIYKNYLSWFQQKPGQPPKLLIYESSKLASGVPSRFSGSGSGTQFTLTISDVQCDDAATYYCLGGYTDGRDTIFGGGTELEIK
notes: Rabbit mAb
EC50 [2]: 0.0691 nM

B13: anti-LILRB4 rabbit monoclonal antibody #161-2 (antibody, V domains shown)
VH: B12 VH
VL: TQTPASVSAAVGGTVTISCQSSETIYKNYLSWFQQKPGQPPKLLIYESSKLASGVPSRFSGSGSGTQFTLTISDVQCDDAATYYCLGGYTDGRDTIFGGGTEVEIK
notes: Rabbit mAb
EC50 [2]: 0.084 nM

B14: anti-LILRB4 mAb C84 (antibody, V domains shown)
VH: QIQLVQSGPELKKPGETVKISCKASGYTFTNYGMNWVKQAPGKGLKWMGWINTYTGEPTYADDFKGRFAFSLETSASTAYLQINNLKNEDMATYFCASIYYHTSLWYFDVWGAGTTVTVSS
VL: DVLMTQTPLSLPVSLGDQASISCRSSQNIVHSNGNTYLEWYLQKPGQSPKLLIYRVSNRFSGVPVRFSGSGSGTDFTLKISRVEAEDLGVYYCFQGSHVPLTFGAGTKLELK
notes: Mouse mAb; also called anti-hLILRB4
EC50 [2]: 0.568 nM | % of cells in the positive gate [7]: 62.5%

B15: anti-LILRB mAb C102 (antibody, V domains shown)
VH: EVQLQQSGPELVKPGASVKISCKTSGYTFTEYTMHWVKQSHGKSLEWIGGINPNNGGTSYNQKFKGKATLTVDKSSSTAYMDLRSLTSEDSAVYYCARYWDYFDYWGQGTTLTVSS
VL: B14 VL with N28S, Y41F, R55K, V65D, H98Q, V99I, L101P, A105G, L111I
notes: mAb against LILRB2
% of cells in the positive gate [8]: 5.22%

B16: anti-LILRB4 mAb C201 (antibody, V domains shown)
VH: DVQLQESGPGLVKPSQSLSLTCTVTGYSITSDYAWNWIRQFPGNKLEWMGYISYSGGTSYNPSLKSRISITRDTSKNQFFLQLNSVTTEDTATYYCARLHYGYDYWGLGTTLTVSS
VL: B14 VL with N28S, R55K, V65D, S97L, L101P, A105G, L111I
notes: Mouse mAb
binding result [12]: binds | % of cells in the positive gate [7]: 38.3%

B17: anti-LILRB4 mAb C92 (antibody, V domains shown)
VH: B14 VH
VL: DVVMTQTPLSLPVSLGDQASISCRSSQSLVHSNGNTYLHWYLQKPGQSPKLLIYKVSNRFSGVPDRFSGSGSGTDFTLKISRVEAEDLGVYFCSQSTHVPYTFGGGTKLEIK
notes: Mouse mAb
% of cells in the positive gate [7]: 44.7%

B18: anti-LILRB4 rabbit monoclonal antibody #120 (antibody, V domains shown)
VH: QSLEESGGRLVTPGTPLTLTCTVSGIDLNKYAMTWVRQAPGKGLEYIGFINIVGIAGYATWAKGRFTISKTSTTVDLKVTSPTTEDTATYFCARNWIRLDLWGQGTLVTVSS
VL: ELDLTQTPASVSAAVGGTVTISCQSSESLYKKNYLSWFQQKPGQPPKLLIFEASKLASGVPSRFSGSGSGTQFTLTISDVQCDDAASYYCLGDYTNGRDTTFGGGTEVVVK
notes: Rabbit mAb
EC50 [2]: 0.0795 nM

B19: anti-LILRB mAb C290 (antibody, V domains shown)
VH: EVQLLQSGPELVKPGASVKISCRTSGYTFTEYTMHWVKQSHGKSLEWIGGINTNNGGTSYNQKFKGKATLTVDKSSSTAYMELRSLTSEDSAVYYCARDKRSRGELDSTMDYWGQGTSVTVSS
VL: DIVMTQAAPSVPVTPGESVSISCRSSKSLLHSNGNTYLYWFLQRPGQSPQLLIYRMSNLASGVPDRFSGSGSGTAFTLRISRVEAEDVGVYYCMQHLEYPFTFGSGTMLEIK
notes: mAb against LILRB3
binding result [10]: binds | binding result [12]: binds | % of cells in the positive gate [6]: 64%
